# Laboratory results: the supplement of paper PMC7125110
# ± gives the standard error. For some assays here: Variants at the floor of the assay were thinned out.
# B1: glmS ribozyme (parent)
# chain: AUAAAAGCGCCAGAACUACAGAAAUGUAGUUGACGAGGAGGAGGUUUAUCGAAUUUUCGGCGGAUGCCUCCAAA
# How the values were obtained:
# Details in all cases: with glucosamine-6-phosphate
# glucosamine-6-phosphate [1] = variants of: B1; experiment: kcat; higher = faster cleavage; RNA array
# Outline: (§1)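 Barcoded ribozyme variants, transcribed in situ by E. coli RNA polymerase on sequenced MiSeq chips, were followed via a hybridised Cy3 probe at 37 °C. Glucosamine-6-phosphate ranged from 40 μM to 10 mM in HEPES/KCl/Mg(OAc)2 buffer. kobs came from decay fits to per-tile medians, and kcat and KM from weighted Michaelis–Menten fits.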
# glucosamine-6-phosphate [2] = variants of: B1; experiment: KM; higher = weaker cofactor use; RNA array
# Outline: as §1
# glucosamine-6-phosphate [3] = variants of: B1; experiment: self-cleavage kobs at 640 uM GlcN6P; higher = faster cleavage; RNA array
# Outline: as §1
# glucosamine-6-phosphate [4] = variants of: B1; experiment: self-cleavage kobs at 2500 uM GlcN6P; higher = faster cleavage; RNA array
# Outline: as §1
# glucosamine-6-phosphate [5] = variants of: B1; experiment: self-cleavage kobs at 10000 uM GlcN6P; higher = faster cleavage; RNA array
# Outline: as §1
# glucosamine-6-phosphate [6] = variants of: B1; experiment: self-cleavage kobs at 40 uM GlcN6P; higher = faster cleavage; RNA array
# Outline: as §1
# glucosamine-6-phosphate [7] = variants of: B1; experiment: self-cleavage kobs at 160 uM GlcN6P; higher = faster cleavage; RNA array
# Outline: as §1
Variant,kcat (glucosamine-6-phosphate [1]) [s⁻¹],KM (glucosamine-6-phosphate [2]) [µM],self-cleavage kobs at 640 uM GlcN6P (glucosamine-6-phosphate [3]) [s⁻¹],self-cleavage kobs at 2500 uM GlcN6P (glucosamine-6-phosphate [4]) [s⁻¹],self-cleavage kobs at 10000 uM GlcN6P (glucosamine-6-phosphate [5]) [s⁻¹],self-cleavage kobs at 40 uM GlcN6P (glucosamine-6-phosphate [6]) [s⁻¹],self-cleavage kobs at 160 uM GlcN6P (glucosamine-6-phosphate [7]) [s⁻¹]
G13U U46G,0.000174 ± 4.9e-06,1460 ± 120,5.44e-05 ± 1.5e-05,0.000107 ± 2.4e-05,0.000153 ± 2.1e-05,,
A14C C16G A53U,2.08e-05 ± 7.9e-07,1700 ± 260,,,,,
A14C A15G,0.00631 ± 0.0025,6250 ± 2900,0.000597 ± 6.6e-05,0.00192 ± 0.00022,0.00369 ± 0.00064,5.61e-05 ± 7.9e-06,0.000127 ± 1.8e-05
A14C A15C,0.00204 ± 0.00038,2740 ± 760,0.000339 ± 4.6e-05,0.0011 ± 0.00014,0.00157 ± 0.00017,4.27e-05 ± 6.9e-06,0.000103 ± 1.6e-05
G13U U45A,0.00214 ± 0.00039,2010 ± 490,0.000543 ± 0.00015,0.00117 ± 0.00036,,4.66e-05 ± 2.1e-05,0.000142 ± 5.1e-05
A14U U65G,0.00172 ± 0.00014,2120 ± 250,0.000431 ± 4.8e-05,0.000875 ± 0.00012,0.00144 ± 0.00018,2.77e-05 ± 8e-06,0.000118 ± 1.7e-05
A14U A64U,1.88e-05 ± 5.9e-07,8870 ± 560,,,,,
A14C C68G,2.74e-05 ± 5.8e-06,,4.49e-05 ± 1.5e-05,,2.58e-05 ± 8.4e-06,,
A14C G40C,0.000718 ± 6.3e-05,3650 ± 530,0.000114 ± 1.8e-05,0.000285 ± 3.3e-05,0.000533 ± 7.6e-05,,2.58e-05 ± 1.1e-05
G13U U56A,0.0005 ± 2.3e-05,1880 ± 150,0.000124 ± 1.6e-05,0.000287 ± 3.6e-05,0.000422 ± 8.8e-05,,4.35e-05 ± 1.3e-05
A14G G44A,0.00146 ± 0.00055,,0.000664 ± 0.00018,0.00104 ± 0.00021,0.00102 ± 0.00013,2.21e-05 ± 9.5e-06,4.23e-05 ± 1.4e-05
A14U G62A C70G,5.52e-05 ± 1.4e-05,,5.47e-05 ± 2e-05,,,,
A15C A53G,0.0101 ± 0.0037,3060 ± 1500,0.00139 ± 0.00015,0.00454 ± 0.00066,0.00839 ± 0.00094,0.000195 ± 2e-05,0.000515 ± 8.7e-05
A14U C68U,0.00143 ± 0.00047,,0.000297 ± 3.8e-05,0.000422 ± 6.8e-05,0.00123 ± 0.00011,2.73e-05 ± 7.7e-06,6.57e-05 ± 1.2e-05
A14G G37C A48G,1.62e-05 ± 5.8e-06,,,,,,
A14G A15U U30G,0.0196 ± 0.0037,263 ± 69,0.0127 ± 0.0037,0.0232 ± 0.0085,,0.00266 ± 0.00038,0.00652 ± 0.0021
A14G U45A U49G,0.00282 ± 0.001,2040 ± 970,0.000745 ± 0.00011,0.00136 ± 0.00063,0.00233 ± 0.00051,8.34e-05 ± 1.7e-05,0.000143 ± 3.9e-05
A14C C16U,0.00104 ± 0.00016,922 ± 250,0.000451 ± 4.8e-05,0.000655 ± 7.7e-05,0.00118 ± 0.00016,5.34e-05 ± 1.1e-05,0.000144 ± 1.9e-05
A14G U57G,0.000171 ± 2.6e-06,2380 ± 88,3.71e-05 ± 8e-06,8.67e-05 ± 9.4e-06,0.000139 ± 1.3e-05,,
A14C G32A,0.00779 ± 0.0028,,0.0014 ± 0.00034,0.00183 ± 0.00065,0.00702 ± 0.00097,0.000121 ± 2.5e-05,0.000388 ± 0.00011
G13U U55G,0.00153 ± 0.00021,3830 ± 780,0.000195 ± 2.5e-05,0.000643 ± 7.1e-05,0.00109 ± 0.00011,2.48e-05 ± 7.6e-06,6.37e-05 ± 8.5e-06
A14U C71G,0.000432 ± 8.9e-05,1620 ± 630,0.000111 ± 1.3e-05,0.000237 ± 3.2e-05,0.000402 ± 4.2e-05,2.7e-05 ± 9.2e-06,5.71e-05 ± 1.1e-05
A14U C70U C71G,4.59e-05 ± 1.2e-05,,6.53e-05 ± 1.7e-05,3.73e-05 ± 1.3e-05,3.81e-05 ± 1.8e-05,,
A14C U56A,0.00449 ± 0.0013,3990 ± 1600,0.000559 ± 6.3e-05,0.00196 ± 0.00028,0.00318 ± 0.00032,7.03e-05 ± 9e-06,0.000133 ± 2.8e-05
A14C C58A,0.000221 ± 1.4e-05,3250 ± 500,3.29e-05 ± 1.1e-05,0.000102 ± 1.6e-05,0.000165 ± 1.7e-05,,
A14G G37A,0.00833 ± 0.0023,3890 ± 1400,0.00126 ± 0.00017,0.00399 ± 0.0005,0.00564 ± 0.00066,0.000119 ± 1.7e-05,0.00027 ± 3.3e-05
A15C A52U,0.000104 ± 4.8e-06,1830 ± 260,,6.2e-05 ± 1.7e-05,8.65e-05 ± 1.9e-05,,
A14G A39C,0.0183 ± 0.0021,3470 ± 520,0.00281 ± 0.00047,0.00921 ± 0.0025,0.0134 ± 0.0019,0.000225 ± 3.6e-05,0.000699 ± 0.00017
